Consider three variants from IntAct's records for PubMed 19661922.

First the molecules themselves.
B1: 5-hydroxytryptamine receptor 4 (Mus musculus), P97288 (parent)
chain: MDKLDANVSSNEGFRSVEKVVLLTFLAVVILMAILGNLLVMVAVCRDRQLRKIKTNYFIVSLAFADLLVSVLVMPFGAIELVQDIWAYGEMFCLVRTSLDVLLTTASIFHLCCISLDRYYAICCQPLVYRNKMTPLRIALMLGGCWVLPMFISFLPIMQGWNNIGIVDVIEKRKFSHNSNSTWCVFMVNKPYAITCSVVAFYIPFLLMVLAYYRIYVTAKEHAQQIQMLQRAGATSESRPQPADQHSTHRMRTETKAAKTLCVIMGCFCFCWAPFFVTNIVDPFIDYTVPEQVWTAFLWLGYINSGLNPFLYAFLNKSFRRAFLIILCCDDERYKRPPILGQTVPCSTTTINGSTHVLRDTVECGGQWESRCHLTATSPLVAAQPSDT

Test [1] covers variants of B1. The following applies: with grk5_human GRK5, P34947.
grk5_human GRK5, P34947, sequence (P34947 whole entry, looked up): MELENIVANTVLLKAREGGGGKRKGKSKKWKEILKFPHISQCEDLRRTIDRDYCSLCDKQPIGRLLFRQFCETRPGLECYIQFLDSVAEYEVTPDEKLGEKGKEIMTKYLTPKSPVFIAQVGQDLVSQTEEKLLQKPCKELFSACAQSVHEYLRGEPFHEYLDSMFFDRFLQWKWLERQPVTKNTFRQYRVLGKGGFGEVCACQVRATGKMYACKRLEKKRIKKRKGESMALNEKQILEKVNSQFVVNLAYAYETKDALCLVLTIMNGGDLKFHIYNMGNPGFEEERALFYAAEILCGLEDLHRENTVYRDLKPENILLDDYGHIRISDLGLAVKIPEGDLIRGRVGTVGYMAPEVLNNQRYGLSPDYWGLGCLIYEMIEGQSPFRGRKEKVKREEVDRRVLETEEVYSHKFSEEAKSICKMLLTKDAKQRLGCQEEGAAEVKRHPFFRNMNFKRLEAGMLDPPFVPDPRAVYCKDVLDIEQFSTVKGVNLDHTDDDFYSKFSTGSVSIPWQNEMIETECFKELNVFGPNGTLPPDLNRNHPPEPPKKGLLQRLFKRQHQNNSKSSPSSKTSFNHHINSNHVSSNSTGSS
Variants of B1 are the subject of test [2]. The following applies: with grk5_human GRK5, P34947. This is another data set of the same source.

As to D331A, the “effect of a mutation on the interaction” value was “decreasing interaction” with grk5_human GRK5, P34947 [1] and “disrupting interaction” in the test with grk5_human GRK5, P34947 [2].

For the variant D330A, the “effect of a mutation on the interaction” value with grk5_human GRK5, P34947 [1] was “decreasing interaction”; with grk5_human GRK5, P34947 [2], “disrupting interaction”.

With E332A, the “effect of a mutation on the interaction” value with grk5_human GRK5, P34947 [1] is reported as “decreasing interaction”; in the test with grk5_human GRK5, P34947 [2], “disrupting interaction”.
